Data taken from the RNAGym collection of RNA variant scans (doi:10.1021/acssynbio.7b00057).

B1: Pistol ribozyme (parent)
chain: GGGUCGUUGUUCCAUAAUCGCGUGGAUAUGGCACGCAAGUUUCUACCGGGCACCGUAAAUGUCCGACUGGAGCCGUUCGGGCGGCUAUAAACAGACCUCAGGCCCGAAGCGUGGCGGCACCUGCCGCCGGUGGUAAAAAAGAUCGGAAGAGCACACGUCU

Variants of: B1
Experiment: aptazyme ON/OFF ratio, guanine; higher = stronger switching; co-transcriptional cleavage with and without guanine

Compared with U7A G9C U11G C13U, U7A G9C U11G C13A is lower in “aptazyme ON/OFF ratio” value: 1.25 for the first, 1.13 for the second.

First: U7A G9C U11G C13G
Second: U7A G9U U10A U11C C13U
The “aptazyme ON/OFF ratio” value of the first is higher: 1.07 for the first, 1.02 for the second.

First: U7A G9U U10A U11C C13G
Second: U7A G9U U10A U11C C13A
The “aptazyme ON/OFF ratio” value of the first is lower: 1.07 for the first, 1.09 for the second.

Going from U7A G9C U10G U11A C13G to U7A G9C U10G U11A C13A, the “aptazyme ON/OFF ratio” value falls from 1.06 to 1.02.

Compared with U7A G9C U10G U11A C13U, U7A G9U U10C U11C C13A is lower in “aptazyme ON/OFF ratio” value: 1.05 for the first, 1.01 for the second.

First: U7A G9U U10C U11C C13G
Second: U7A G9U U10C U11C C13U
The “aptazyme ON/OFF ratio” value of the first is higher: 1.04 for the first, 1.02 for the second.

Compared with U7A G9C U10G C12U C13A, U7A G9C U10G C12U C13U is higher in “aptazyme ON/OFF ratio” value: 1.06 for the first, 1.56 for the second.

Going from U7A G9C U10G C12U C13G to U7A G9U U10A U11G C12U C13G, the “aptazyme ON/OFF ratio” value rises from 1.11 to 1.13.

First: U7A G9U U10A U11G C12U C13A
Second: U7A G9U U10A U11G C12U C13U
The “aptazyme ON/OFF ratio” value of the first is lower: 1.16 for the first, 1.22 for the second.

First: U7A G9U U10A U11C C12U C13U
Second: U7A G9U U10A U11C C12U C13G
The “aptazyme ON/OFF ratio” value of the first is higher: 1.18 for the first, 1.12 for the second.

Going from U7A G9U U10A U11C C12U C13A to U7A G9C U10G U11G C12G C13G, the “aptazyme ON/OFF ratio” value falls from 1.23 to 1.13.

Going from U7A G9C U10G U11G C12G C13U to U7A G9C U10G U11G C12G C13A, the “aptazyme ON/OFF ratio” value falls from 1.16 to 1.14.

Compared with U7A G9U U10G, U7A G9U U10A is lower in “aptazyme ON/OFF ratio” value: 1.75 for the first, 1.4 for the second.

First: U7A G9U U10C
Second: U7A G9C U10G U11A C12G
The “aptazyme ON/OFF ratio” value of the first is higher: 2.35 for the first, 1.06 for the second.

First: U7A G9C U10G U11A C12A
Second: U7A G9C U10G U11A C12U
The “aptazyme ON/OFF ratio” value of the first is higher: 1.1 for the first, 1.04 for the second.

Going from U7A G9C U11G C12A C13A to U7A G9C U11G C12A C13U, the “aptazyme ON/OFF ratio” value rises from 1.1 to 1.29.

First: U7A G9C U11G C12A C13G
Second: U7A G9U U10G C12U
The “aptazyme ON/OFF ratio” value of the first is lower: 1.14 for the first, 1.43 for the second.

First: U7A G9U U10G C12A
Second: U7A G9U U10G C12G
The “aptazyme ON/OFF ratio” value of the first is higher: 1.15 for the first, 1.13 for the second.

Going from U7A G9C U10C U11C C13U to U7A G9C U10C U11C C13G, the “aptazyme ON/OFF ratio” value falls from 1.03 to 1.01.

Compared with U7A G9C U10C U11C C13A, U7A G9U U10C C12U C13A is higher in “aptazyme ON/OFF ratio” value: 1.01 for the first, 1.14 for the second.

Going from U7A G9U U10C C12U C13G to U7A G9U U10C C12U C13U, the “aptazyme ON/OFF ratio” value rises from 1.07 to 1.2.

Compared with U7A G9C U10C U11A C12G, U7A G9C U10C U11A C12U is lower in “aptazyme ON/OFF ratio” value: 1.1 for the first, 1.04 for the second.

Compared with U7A G9U U10G U11A C13G, U7A G9U U10G U11A C13A is higher in “aptazyme ON/OFF ratio” value: 1.08 for the first, 1.09 for the second.

Compared with U7A G9U U10G U11A C13U, U7A G9C U11C C12G is higher in “aptazyme ON/OFF ratio” value: 1.05 for the first, 1.06 for the second.

U7A G9C U11C C12A and U7A G9C U11C C12U are the same in “aptazyme ON/OFF ratio” value: 1.09 for the first, 1.09 for the second.

First: U7A G9U U10C U11A C12A C13G
Second: U7A G9U U10C U11A C12A C13U
The “aptazyme ON/OFF ratio” value of the first is lower: 1.15 for the first, 1.21 for the second.

Going from U7A G9U U10C U11A C12A C13A to U7A G9U U10C U11G C12G, the “aptazyme ON/OFF ratio” value falls from 1.2 to 1.09.

First: U7A G9U U10C U11G C12A
Second: U7A G9U U10C U11G C12U
The “aptazyme ON/OFF ratio” value of the first is lower: 1.02 for the first, 1.34 for the second.

Compared with U7A G9C U10C U11A C12A C13G, U7A G9C U10C U11A C12A C13U is lower in “aptazyme ON/OFF ratio” value: 1.06 for the first, 1.03 for the second.

First: U7A G9C U10C U11A C12A C13A
Second: U7A G9U U10A U11A
The “aptazyme ON/OFF ratio” value of the first is lower: 1.07 for the first, 1.43 for the second.

First: U7A G9U U10A U11C
Second: U7A G9U U10A U11G
The “aptazyme ON/OFF ratio” value of the first is lower: 1.02 for the first, 1.31 for the second.

Compared with U7A G9U U10C U11G C12G C13A, U7A G9U U10C U11G C12G C13G is higher in “aptazyme ON/OFF ratio” value: 1.14 for the first, 1.16 for the second.

Compared with U7A G9U U10C U11G C12G C13U, U7A G9C U10C U11G C13A is lower in “aptazyme ON/OFF ratio” value: 1.11 for the first, 1.06 for the second.

U7A G9C U10C U11G C13G and U7A G9C U10C U11G C13U are the same in “aptazyme ON/OFF ratio” value: 1.08 for the first, 1.08 for the second.

Compared with U7A G9U U10G U11A, U7A G9C U10C U11C C12G C13U is lower in “aptazyme ON/OFF ratio” value: 1.08 for the first, 1.02 for the second.

Going from U7A G9C U10C U11C C12G C13G to U7A G9C U10C U11C C12G C13A, the “aptazyme ON/OFF ratio” value falls from 1.09 to 1.06.

Compared with U7A G9C U10C U11G C12G C13G, U7A G9C U10C U11G C12G C13A is lower in “aptazyme ON/OFF ratio” value: 1.17 for the first, 1.07 for the second.

Going from U7A G9C U10C U11G C12G C13U to U7A G9U U10A U11A C12U C13A, the “aptazyme ON/OFF ratio” value rises from 1.05 to 1.3.

First: U7A G9U U10A U11A C12U C13G
Second: U7A G9U U10A U11A C12U C13U
The “aptazyme ON/OFF ratio” value of the first is higher: 1.15 for the first, 1.06 for the second.

First: U7A G9C U10G U11G C12U C13G
Second: U7A G9C U10G U11G C12U C13U
The “aptazyme ON/OFF ratio” value of the first is lower: 1.12 for the first, 1.16 for the second.

Going from U7A G9C U10G U11G C12U C13A to U7A G9U U10A U11C C12A C13A, the “aptazyme ON/OFF ratio” value rises from 1.09 to 1.22.

Going from U7A G9U U10A U11C C12A C13U to U7A G9U U10A U11C C12A C13G, the “aptazyme ON/OFF ratio” value rises from 1.17 to 1.24.
